Laboratory results from paper PMC10278182 (2023).
One block for each binder: values may come before it.

Tests used:
[1] = target: T1, WD40 repeat protein 5 truncation mutant lacking residues 1-22 (WDR5ΔN) (UniProt P61964 23-334); test: medium-lived events (koff-2), 4 [WDR5]
[2] = target: T1, WD40 repeat protein 5 truncation mutant …; test: short-lived events (koff-1), 0.5 [WDR5]
[3] = target: T1, WD40 repeat protein 5 truncation mutant …; test: long-lived events (koff-3), 4 [WDR5]
[4] = target: T1, WD40 repeat protein 5 truncation mutant …; test: medium-lived events (koff-2), 0.5 [WDR5]
[5] = target: T1, WD40 repeat protein 5 truncation mutant …; test: long-lived events (koff-3), 0.5 [WDR5]
[6] = target: T1, WD40 repeat protein 5 truncation mutant …; test: short-lived events (koff-1), 1 [WDR5]
[7] = target: T1, WD40 repeat protein 5 truncation mutant …; test: medium-lived events (koff-2), 1 [WDR5]
[8] = target: T1, WD40 repeat protein 5 truncation mutant …; test: medium-lived events (koff-2), event durations
[9] = target: T1, WD40 repeat protein 5 truncation mutant …; test: short-lived events (koff-1), 4 [WDR5]
[10] = target: T1, WD40 repeat protein 5 truncation mutant …; test: long-lived events (koff-3), 1 [WDR5]
[11] = target: T1, WD40 repeat protein 5 truncation mutant …; test: medium-lived events (koff-2), 2 [WDR5]
[12] = target: T1, WD40 repeat protein 5 truncation mutant …; test: long-lived events (koff-3), event durations
[13] = target: T1, WD40 repeat protein 5 truncation mutant …; test: short-lived events (koff-1), event durations
[14] = target: T1, WD40 repeat protein 5 truncation mutant …; test: long-lived events (koff-3), 2 [WDR5]
[15] = target: T1, WD40 repeat protein 5 truncation mutant …; test: short-lived events (koff-1), 2 [WDR5]
[16] = target: T1, WD40 repeat protein 5 truncation mutant …; test: short-lived events (koff-1), 4 [WDR5]; remark: listed apart in the source
[17] = target: T1, WD40 repeat protein 5 truncation mutant …; test: short-lived events (koff-1), 1 [WDR5]; remark: listed apart in the source
[18] = target: T1, WD40 repeat protein 5 truncation mutant …; test: long-lived events (koff-3), 0.5 [WDR5]; remark: listed apart in the source
[19] = target: T1, WD40 repeat protein 5 truncation mutant …; test: long-lived events (koff-3), 2 [WDR5]; remark: listed apart in the source
[20] = target: T1, WD40 repeat protein 5 truncation mutant …; test: long-lived events (koff-3), 4 [WDR5]; remark: listed apart in the source
[21] = target: T1, WD40 repeat protein 5 truncation mutant …; test: medium-lived events (koff-2), 2 [WDR5]; remark: listed apart in the source
[22] = target: T1, WD40 repeat protein 5 truncation mutant …; test: long-lived events (koff-3), 1 [WDR5]; remark: listed apart in the source
[23] = target: T1, WD40 repeat protein 5 truncation mutant …; test: medium-lived events (koff-2), 1 [WDR5]; remark: listed apart in the source
[24] = target: T1, WD40 repeat protein 5 truncation mutant …; test: medium-lived events (koff-2), 4 [WDR5]; remark: listed apart in the source
[25] = target: T1, WD40 repeat protein 5 truncation mutant …; test: short-lived events (koff-1), 0.5 [WDR5]; remark: listed apart in the source

koff [1]: 9.5 s⁻¹
koff [2]: 84 s⁻¹
koff [3]: 0.79 s⁻¹
koff [4]: 8.9 s⁻¹
koff [5]: 0.84 s⁻¹
koff [6]: 91 s⁻¹
koff [7]: 9.4 s⁻¹
koff [8]: 9.9 s⁻¹
koff [9]: 81 s⁻¹
koff [10]: 0.77 s⁻¹
koff [11]: 9.9 s⁻¹
koff [12]: 0.77 s⁻¹
koff [13]: 87 s⁻¹
koff [14]: 0.77 s⁻¹
koff [15]: 87 s⁻¹
Binder: MGDRGPEFELGTMLNPHGAARAEVYLRGGSGGSGGSGGS (other) [O(GGS)4 nanopore sensor (adaptor O - MLL4Win - (GGS)4 tether - tFhuA)]

koff [16]: 167 s⁻¹
koff [17]: 159 s⁻¹
koff [8]: 20 s⁻¹
koff [18]: 0.77 s⁻¹
koff [19]: 0.77 s⁻¹
koff [12]: 0.77 s⁻¹
koff [20]: 0.73 s⁻¹
koff [21]: 20 s⁻¹
koff [22]: 0.78 s⁻¹
koff [23]: 23 s⁻¹
koff [24]: 21 s⁻¹
koff [25]: 178 s⁻¹
Binder: MGDRGPEFELGTMLNPHGAARAEVYLRPAPAPAPAPAPA (other) [O(PA)6 nanopore sensor (adaptor O - MLL4Win - (PA)6 tether - tFhuA)]

koff [8]: 9.2 s⁻¹
koff [13]: 86 s⁻¹
Binder: MGDRGPEFELGTMLNPHGAARAEVYLRGGSGGS (other) [O(GGS)2 nanopore sensor (adaptor O - MLL4Win - (GGS)2 tether - tFhuA)]

koff [8]: 34 s⁻¹
koff [13]: 210 s⁻¹
Binder: MGDRGPEFELGTMLNPHGAARAEVYLRPAPAPA (other) [O(PA)3 nanopore sensor (adaptor O - MLL4Win - (PA)3 tether - tFhuA)]
